Test results taken from the DeepSol protein solubility set.

assay: soluble on expression in E. coli; label from the status in PepcDB or PDB records

Row | Sequence | soluble on expression in E. coli
1 | MVALSNALSRVFGSLAGYKFPSFIQKGINALYVKIFKIDLSEFEPLENYRSLNALFTRSLKKERPFDKSPNICIAPCDALITECAFLDNDSALQIKGMPYKAHELVGEINPLSPSFFYANFYLSPKDYHHYHAPCDLEILEARYFAGKLLPVNKPSLHKNNNLFVGNERVTLVAKDIQGNRLYFVAVGALNVGKMRFNFDKNIQTNAKARFTQTYSYNPPIKVKKGDNLGNFEMGSTIVLFIQNTAFKDLKEKNVKFGESIGEFHANLEHHHHHH | soluble
2 | GMVRRTRAEMEETRATLLATARKVFSERGYADTSMDDLTAQASLTRGALYHHFGDKKGLLAAVVEQIDAEMDERLQAISDTAEDDWEGFRCRCRAYLEMALEPEIQRIVLRDARAVLGGASPDSQRHCVESMQRLIDNLIRQGVVAEADPQALASLIYGSLAEAAFWIAEGEDGNARLAQGVAALELLLRGLLVKPR | soluble
3 | MAHHHHHHMSITSRFIGGVKHLLKGGSMKYLAAGEPYCPFGEAFGLTILPEYILEDDASNLRKGYVDVYTRASDRIILNDGRFQLPPLPPASFMPLLERLEQDNVVPKSWLNNQTANLYEPGDFIRAHIDNLFVYDDIFAICSLGSNCLLRFVHVQNGEELDVMVPDRSVYIMSGPARYVYFHMVLPVEAQRFSLVFRRSIMESDGGF | not soluble
4 | MRIVAPVMPRHFDEAQAIDISKYEDVNLIEWRADFLPKDEIVAVAPAIFEKFAGKEIIFTLRTVQEGGNITLSSQEYVDIIKEINAIYNPDYIDFEYFTHKSVFQEMLDFPNLILSYHNFEETPENLMEAFSEMTKLAPRVVKIAVMPQSEQDVLDLMNYTRGFKTLNPEQEFATISMGKLGRLSRFAGDVIGSSWTYVSLDHVSGPGQVTLNDMKRIIEVLEMDISN | soluble
5 | DMPAEIVNLIGKMRFHTVYGQNLLQHSREVAMLAGLMAAELKLDAKQAKRAGLLHDIGLVLPETEMPHALAGMEFLKKFNMSPVVLNAIGAHHGEVEKASPIADLVDAANIVSLSRPGARGAVTAEGNVKRLESLEEIARTFPGVIKTYALQAGREIRVIVEGDNVSD | not soluble
6 | MDREAFVQTLTACRLCPRLVAWREEVVGRKRAFRGEPYWARPVPGFGDPEARILLFGLAPGAHGSNRTGRPFTGDASGAFLYPLLHEAGLSSKPESLPGDDLRLYGVYLTAAVRCAPPKNKPTPEELRACARWTEVELGLLPEVRVYVALGRIALEALLAHFGLRKSAHPFRHGAHYPLPGGRHLLASYHVSRQNTQTGRLTREMFLEVLMEAKRLAGL | soluble
7 | GSHMASMTGGQQMGRGSMLPRLICINDYEQHAKSVLPKSIYDYYRSGANDEETLADNIAAFSRWKLYPRMLRNVAETDLSTSVLGQRVSMPICVGATAMQRMAHVDGELATVRACQSLGTGMMLSSWATSSIEEVAEAGPEALRWLQLYIYKDREVTKKLVRQAEKMGYKAIFVTVDTPYLGNRLDDVRNRFKLPPQLRMKNFETSTLSFSPEENFGDDSGLAAYVAKAIDPSISWEDIKWLRRLTSLPIVAKGILRGDDAREAVKHGLNGILVSNHGARQLDGVPATIDVLPEIVEAVEGKVEVFLDGGVRKGTDVLKALALGAKAVFVGRPIVWGLAFQGEKGVQDVLEILKEEFRLAMALSGCQNVKVIDKTLVRKNPLAVSKI | soluble
8 | SLSYTISRPINQLMLAMQKAESGDLTSRYEGEEQDEVGRLGRSFNTMIEQIGKLISLTERQERKKREAELHSLQANIKPHFLYNTLDTIQWMARKKNASDVADLVGALSKLFRIGLSKGGTIIPLVDEIEHIKNYLQIQSVRYKNKLNYSLVMPSNMERLSILKIVLQPIVENAIYHGIKERRGPGLITIEAERENDMLIIRIRDNGKGIKPETLQQLRTNVNLFLEKGDKEGGQRLTKGYGLINVHARLRLTFGEPYGVKIDSVFNEGTVVTIFHPILEGGVETKRA | soluble
9 | SNASNAVKRKGVEVIIALDISNSMLAQDVQPSRLEKAKRLISRLVDELDNDKVGMIVFAGDAFTQLPITSDYISAKMFLESISPSLISKQGTAIGEAINLATRSFTPQEGVGRAIIVITDGENHEGGAVEAAKAAAEKGIQVSVLGVGMPEGAPIPVEGTNDYRRDREGNVIVTRLNEGMCQEIAKDGKGIYVRVDNSNSAQKAISQEISKMAKSDVE | soluble
10 | GMSEPVFPTPEAAEDAFYAAFEARSLDDMMAVWARDDHVACIHPLAAPLNGRAAVAAGWRSMFGAAGRFRLQVKAVHEIRQADHVIRIVDEFLTIGDETAPRPAILATNVYRREADGWRMVLHHASPLQVGAKAGADTPPVVFH | soluble
